Results taken from a protein production outcome set (Wang et al. 2014).

assay: label from the status in PepcDB records
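Further: failed if final PepcDB status was selected cloned or expressed and not failed if soluble or beyond.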

Q: With “MVSRRLQDSANRLFGKAATFIENGKYDRALESLKDVDKIMKKEKDPEISFHTLFLKGYTISKAGDPEGALEFYGEALKIIEPLFSGEPGKKNYQKFISNMIEEIGSSFDELNDEERAEELLGPMEKQFEKVVRTFEELVKSDPENQEYLSGFLEIIGSMGVCYQAGQLMDQAVKLFDKKIDIYEKLFELESGETDLLGDFDEDIELYGYLFRNYGHLKEAEGNYFRAAGIYRKMIEKDPENSMAEYYLSYTYSYHGSLYSGMENLEKAERYYEEAVELMDKGYKEFPEDYAYAVSLANIHESYGVAFSNRKYLEKSIANYTKAREIYRDLIINHPSEFARNKKIAMYLDDLGDRFSKIGEFEAAELCYKDKLDVFRNLHDEDPEDLNPIFEISDTYEELGDIFAEHGETGKAKAYYEKEIEIYESLLETEPDALDYKTYMAEVQATIGKLYLDEEPEKAQKYFEDALSVLENNFELEPEMDIHYSVLKKVLNNFIQLFKNQEEHEKAAEMYSKLLAVQQRMLDLNPEEREYKEDLAVTYTNLALLHSERGDIEQEARYHRLALDIHEKILEESSDYPLFLQRFVTGIYLLGSRLKLDEESRGKESGIVKEYLELAKKAENKLYAVKPEIMEDKELIAEIAEKMGISFRENEMYEEAIEEFKRSLAIREKLHEKNPENLNYLTVLEGIFHQMGITFLAQKDLEKAKETLEKAMDLNAKLLETDPEDFNYLARSSMIFETYSSVLENMGKSEEAAKYLAKAEEINAKLGYSNE” as the sequence, how does the protein production read?
A: failed

Q: Which protein production does the source give for “MVSRTGRTHLPLVDSLKEKLPYILCGLLALAGVLLVWSLGSTFLPVLLALILAYVLNPLVTWLEARRVPRVAAVLLVMALIVVVTAGAVTFFAVSIQKEVARVEINLPAYATRLYDLIPGQAKAYLEIETPDKLYARIDSLVDELRGASFDLVKGALGVVQRAFSSTLGFLLTVAGYFITPVYLYYFLADLPRLRDGIMALVPGRARDRAAMLGSEIDGVLSGFVRGQLAVCAILAVLYSIGLVMIGIDLAIVIGSLSGFLFIIPYVGTVFGIVVSMIMAFLKFHDMLHPLLCLGWFAIVQAIEGALITPAVVGNTVGLHPVVAILALFIGGQWFGIFGMLLAVPVAAVIKVLLRHGVEWYRATPFFERP” here?
A: failed

Q: With “MVSSAIVLGLTAATVLVFTGIGLFAARGRIDSVETYISARDSAGSGTLAATVIASMMGVWILLSPAEAGAAFGGLPAVLGYAIGSAIPLLLFIPVGARIREVMPAGHSLTEFAYARFGSGMYLLVLLVSVFYMFIFLAAEMTGIAGALALVADVPLWQTSLLIGGFVLVYTAYGGLLASIVTDTVQTLVILPLLAVGFGGALLSLGGTSEFHATVVSADPTLLDPGFGPGLEFGLYVAFALLGANMLNQGVWQRVYAADGDGALRRGMGIAAVVVVPMLLLSGLFGIAAAGLGLTESGSASIAFFLVVAEAFPTWVTLAVVVLAVLLVMSSADTMFNAIASVVTADLARLLDDPDQRTLWLGGRGLTVAVALAAMFIGAQGYSVLQLFLTADLLAAGVFVPFLAGLYTERLTGPGALVSGIAGLLVGFTYFPSLRGLMAAIPGVGSMLPAPSFLIAFAGATLVSAALTAVATLLGGADADLDSLGREVRALDDPVADGGSEQ” as the sequence, how does the protein production read?
A: failed

Q: For “MVSSSNNSSIAKAFVTVAAIFIIFAGIKTAANILVPFLLSVFIAIICNPLINKASEYKIPKAVSVIFVIVVFVTMAVFLTGLVGSSLNELSQQIPQYRIQLKEQFTWLTSFLNSHDIQLSSSIVTEYFDPAAAMGLAADMLSSFGSVMTNLFLIILTVVFMLFESSTIPHKLHLALDDPQMRLNQIERFLSSVNQYIAIKTLVSIATGCIVSLMLWIFGLDFFLLWGVLAFLLNYIPNIGSIIAAVPPMTLAILQLSIGEAGAIGLGFVLINMVMGNIIEPRYLGKGLGLSTLVVFLSLIFWGWLLGTVGMLLSVPLTMILKIGLESSPEGRWLAVMLSDEVELVDKTEQALLD”, which protein production is on record?
A: failed

Q: For “MVSTLGSDTFTSISAHDLHGKLGNIHLIDVRENDDFKEGHIPTSRNIPMDILLKEPEKYINKTDEYYIVCQAGVKSEKTCKELWSKGYKVINIKDGTDSYKQPLER”, which protein production is on record?
A: failed

Q: With “MVSVNSSHCFYNDSFKYTLYGCMFSMVFVLGLISNCVAIYIFICVLKVRNETTTYMINLAMSDLLFVFTLPFRIFYFTTRNWPFGDLLCKISVMLFYTNMYGSILFLTCISVDRFLAIVYPFKSKTLRTKRNAKIVCTGVWLTVIGGSAPAVFVQSTHSQGNNASEACFENFPEATWKTYLSRIVIFIEIVGFFIPLILNVTCSSMVLKTLTKPVTLSRSKINKTKVLKMIFVHLIIFCFCFVPYNINLILYSLVRTQTFVNCSVVAAVRTMYPITLCIAVSNCCFDPIVYYFTSDTIQNSIKMKNWSVRRSDFRFSEVHGAENFIQHNLQTLKSKIFDNESAA” as the sequence, how does the protein production read?
A: failed

Q: With “MVTKILKAPDGSPSDVERIKKESDYLRGTLKEVMLDRISAGIPDDDNRLMKHHGSYLQDDRDLRNERQKQKLEPAYQFMLRVRMPGGVSTPEQWLVMDDLSQKYGNGTLKLTTRETFQMHGILKWNMKKTIQTIHSALLDTIAACGDVNRNVMCASNPYQSEIHSEVYEWSKKLSDDLLPRTRAYHEIWLDEERVAGTPEEEVEPMYGPLYLPRKFKIGIAVPPSNDIDVFSQDLGFIAIVEDGKLIGFNVAIGGGMGMTHGDTATYPQLAKVIGFCRPEQMYDVAEKTITIQRDYGNRSVRKNARFKYTVDRLGLENVKEELENRLGWSLEEAKPYHFDHNGDRYGWVEGIEDKWHFTLFVEGGRITDYDDYKLMTGLREIAKVHTGEFRLTANQNLMIANVSSDKKEEISALIEQYGLTDGKHYSALRRSSMACVALPTCGLAMAEAERYLPTLLDKIEEIIDENGLRDQEITIRMTGCPNGCARHALGEIGFIGKAPGKYNMYLGAAFDGSRLSKMYRENIGEADILSELRILLSRYAKEREEGEHFGDFVIRAGIIKATTDGTNFHD” as the sequence, how does the protein production read?
A: failed

Q: For “MVVKFTKSEALHKEALEHIVGGVNSPSRSFKAVGGGAPIAMERGKGAYFWDVDGNKYIDYLAAYGPIITGHAHPHITKAITTAAENGVLYGTPTALEVKFAKMLKEAMPALDKVRFVNSGTEAVMTTIRVARAYTGRTKIMKFAGCYHGHSDLVLVAAGSGPSTLGTPDSAGVPQSIAQEVITVPFNNVETLKEALDKWGHEVAAILVEPIVGNFGIVEPKPGFLEKVNELVHEAGALVIYDEVITAFRFMYGGAQDLLGVTPDLTALGKVIGGGLPIGAYGGKKEIMEQVAPLGPAYQAGTMAGNPASMASGIACLEVLQQEGLYEKLDELGAMLEKGILEQAAKHNIDITLNRLKGALTVYFTTNTIEDYDAAQDTDGEMFGKFFKLMLQEGVNLAPSKYEAWFLTTEHTKEDIEYTIEAVGRAFAALADNK”, which protein production is on record?
A: not failed

Q: With “MVVKVINKKQDKFYFKLGMFILIFLILGVSLLNIIGINVDKTYENGNGMYAHIVDYSLPWVKVANNKNTSENTYSIKNIILSAAGLDINKPENVISKEVSFLGEALPKSIKSECPNESFTLDDKDVVKSTSGSVQNEPLKNINENIYDPKLKKALDKSKPEILIYHSHTTEAYKPYPADSLNSTQNVCAVGDELVKELGEKYGIYAINDKTVHNVVDYNKSYTRSGETLDKYLKQYGDFKMIIDMHRDSDVPKSKVTARINGEDVAKFMFVMTRKNPHFDKNMALVNGLVSICNKDFPGIFNGIYYYDYGINYYNQQKSNNAFLLEVGSDINTIDEAKGTSKYLARIIAEYLNGKK” as the sequence, how does the protein production read?
A: failed

Q: With “MVVMYFLFPETTNVVIVSALNFAALFLSFFTHYTSSRKDEDLTILAFSCLFSSLLSLFFLRIFLMNPKNAWMFLSSSKLILAEGFFFFLIGKKKNSFKWLVVLTFVILFAVSVLRFDFTLHLESVSLALFSLLLLIRKPQTTLLSVSLFLYSISSIFFYFFRSAYPYHVASGSIFLMWHFVKKYVETPKEEAEKLSKELEIPPERISSAVTNLYNFLIEILRIIPEILREDDQNRVREMLSKYFSQEVSSYFPKLRDAFSKFAEEYISFLEEKQKFQDMYVVLTKNLAHNLKNPVNAIYVSAQLLKQQFPETSPVVRNIEKLCHEMTEEIERILKTSIGRSEVLRKNDVEKALEPILETARLKNLETDIEMEFDELEIDKDAFLALVLNLFSNAVKYTPSGRVVLKIEKKNDKINLRVSDTGPGLKEQNGFGLFTVKKLVNYLNGSMEVIKKDGTTFVITLPLRRDKNDSTDRGR” as the sequence, how does the protein production read?
A: failed

Q: Which protein production does the source give for “MVVRSLSVVGLGPAGAGAAAAASRLGVKPVIYEAMEKPGLKPCGRGLPIVDGGLPVSIPRDSILRRIRGARMYVDGEFLFEMKGFLDGYIVDKTVMLEAIAVEAGGEIHYRAKYKPGSSTVRLPGGGEARVEQGVFAGGHPYYGGAKIAAVQWIMKTGPRSDPVGDMLEIHFDTELLGYAYIFPKEEGFIEVGIGGFATPRELRERLESFIHKRSDLRELERVKLEGARIAIGGLDLGVVDGLVKAGEAAGFVLPLTGEGIRPSLISGYEAASALIEGGSPLEKLRSLPIARAVSMQKRILDLVAGMSVEERRSLLKSLTPRAHAEIALGMFRKHILLKELARSPRALSLLGLVTRLI” here?
A: failed

Q: Which protein production does the source give for “MVVYGADVICASCVNAPTSKDIYDWLQPLLKRKYPNISFKYTYIDITKDNDNLTDHDLQFIERIEQDELFYPLITMNDEYVADGYIQTKQITRFIDQKLVNE” here?
A: not failed

Q: For “MVVYGKQKYIMKRCFYMNKKLKTEAVDHLFQAILTLKSTEECYSFFEDVCTVNELLSFSQRYEVAKMLREKRTYLEIADKTGASTATISRVNRSLNYGNDGYDMVFKRLEDQAAEDNEA”, which protein production is on record?
A: failed

Q: Which protein production does the source give for “MVWTGLLIGVLFGVILQRGRICFNSAFRDVLIFKDNYLMRLAALTLGLESITLLIFAQAGIITLNPKPLNWIGNIIGGFIFGMGMVLAGGCASGVTYRTGEGMTTAWFAALAYALTAHATKKGLFSGWIKWLSNYTVTVSNTNPVYAPKTGPTIATVLGISPWIASIIFLALMLWYAFGVKNKSQRPSKLNWIAASVLIAILAPIAWWASASTGRNYGLGITGGWINLVSVYANNASLNWEGAEILGIIIGAAISAIAGKEFKLRMPKNPKTYAQVLLGGFLMGFGAVTAGGCNIGHFLTGVPTLAISSIVASIFFILGNWTMAWFLFGRQK” here?
A: failed

Q: With “MVYDNIKREIIGMLKRMPNKQADWDNDLLPTLKAMFNPKSVSNAKSQLISEGVISQEIVDGKKIITLIKDPYELQAPNVFDEEMFLAYYTDKLKEYFKHKLSTEGPEWDIFDVKEFIMHFPESGDLNDKLIEHPYEVRKSITNVYIEAYEELFNETPNVEFIHIRNPIDCRISLSELSSAHKGKLVEFRAMILQATKLKLRYAKGFYYCPKCGATKTLDLGFWDKPKEVGKSLTCPADGCDCKGLIFDEDLSGKVDFQEIKVQTPLQESIYANKHSTTVFYEFNKPKKAVYSGYVKIVGVPIVKENKNGSVGELYIHAFYIEKDDEDIEEIAKNLNEKDLELINRIAKDKNVIQKLSDYAFREVTGYDMIKRAVLLQLVSSGTNIDMRTSIHILMISDPGVGKSTLMESLIQKFPFVKKVYAVTSSGPGLVGSVVREKAEFGDSWVLKAGVLTEADGGVVCIDEFSRNKEVYDYLLGVMEQQKIEINKAGVIDAVLPARVAILAACNPRFGRFNPDLTVWEQINLPKELLDRFDLIFVIKDKIDKKKDEDIADFSIDNYNSKVRERKGKSSGKKFVINGVELNDELLLKYVLYARQIEPEISDEARKIIKEYYVSVRKMSEAKGTFGISARQLGSIIRLAVAHAKLRLSEVVKAVDAEEAIRLVDTCLKQIAYDPESGSIDIDKIAGTPKSKRDKVEKVLNIIKEISNSRDDGLAPEEEIYERAERAGLSEKEVEDAINYLKRVGDIYSPKSGYWQLMS” as the sequence, how does the protein production read?
A: failed

Q: Which protein production does the source give for “MWAYLAILAMAYVTYKTKALDIKGIIAALLLGVIIVTLGGIIPFIALLAFLVMGTLATKFRYREKRKMGLIDESIRSVGNVLGNGLAPLLFVIVEFIIKQDFGWAGVLSSIAVANADTLASEIGKVFGKNPRIITNLKPAKPGEEGAVSFAGEFAALLGAFVISLFGLSLTEYGIQMIVSVTLAGLIGANIDSLIGATFEKNGYFGNNMTNFIATLLGGLLGMALFLLLV” here?
A: failed
